According to patent publication CN118076384A:

Target: PDL1 on MDA MB-231 human breast cancer cells (human) (UniProt Q9NZQ7)
Test: flow cytometry on MDA MB-231 cells, anti-human IgG Fc secondary antibody

UniProt Q9NZQ7, sequence (Q9NZQ7 19-290): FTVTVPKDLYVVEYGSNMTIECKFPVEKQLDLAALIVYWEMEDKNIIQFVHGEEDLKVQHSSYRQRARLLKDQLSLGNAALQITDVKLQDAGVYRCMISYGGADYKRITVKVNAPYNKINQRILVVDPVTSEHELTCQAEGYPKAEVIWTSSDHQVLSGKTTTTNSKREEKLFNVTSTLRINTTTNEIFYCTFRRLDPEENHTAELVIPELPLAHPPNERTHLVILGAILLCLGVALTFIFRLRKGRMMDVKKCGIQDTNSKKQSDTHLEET

## 德瓦鲁单抗(durvalumab) (antibody)
  Kd: 167 pM
